The results in this text go back to patent US20210221908A1 (LAMKAP BIO BETA, published 2021).

The target in assay [1] is T1, human CEACAM6 on MKN-45 cells (human, UniProt P40199 35-320).
T1 construct: whole, on cells
T1 sequence (looked up): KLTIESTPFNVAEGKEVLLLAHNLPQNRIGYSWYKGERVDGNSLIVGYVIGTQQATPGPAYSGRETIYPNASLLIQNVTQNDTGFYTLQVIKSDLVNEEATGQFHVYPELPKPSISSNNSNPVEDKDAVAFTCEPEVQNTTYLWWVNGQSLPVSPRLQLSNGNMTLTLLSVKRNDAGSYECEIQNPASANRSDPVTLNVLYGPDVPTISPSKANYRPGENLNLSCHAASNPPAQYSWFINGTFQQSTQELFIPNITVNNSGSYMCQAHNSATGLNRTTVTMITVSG
In words: legend of FIG. 21A, FACS on MKN-45 cells. The protocol: Binding to target cells (MKN-45) expressing CD47, CEACAM5 and CEACAM6 was assessed by FACS.
(§1) Cells are harvested, counted, checked for viability and resuspended at 3×10⁶ cells/ml in FACS buffer (PBS 2% BSA, 0.1% NaN3). 100 μl of the cell suspension are distributed in V-bottom 96-well plates (3×10⁵ cells/well). The supernatant is removed by centrifugation 3 minutes at 4° C., 1300 rpm. Increasing concentrations of the antibody according to the invention are then added into the wells and incubated for 15 minutes at 4° C. Cells are washed twice with cold FACS buffer and re-incubated for further 15 minutes at 4° C. with the PE (R-phycoerythrin)-conjugated mouse anti-human IgG Fc secondary antibody (SouthernBiotech, pre-diluted 1:100 in FACS buffer). Cells are washed twice with cold FACS buffer and resuspended in 300 μl FACS buffer with 1:15000-diluted SytoxBlue (Life Technologies). Fluorescence is measured using a Cytoflex […]. Binding curves and EC50 values are obtained and calculated using GraphPad Prism? software. In the same manner binding of MAB CEA or MAB CEA1 to MKN-45 cells can be tested.

Assay [2] addresses T2, human CEACAM5 on MKN-45 cells (human, UniProt P06731 35-685).
T2 construct: endogenous CEA of MKN-45 gastric adenocarcinoma cells, which also carry CD47 and CEACAM6; UniProtKB P06731; also called CD66e
T2 sequence: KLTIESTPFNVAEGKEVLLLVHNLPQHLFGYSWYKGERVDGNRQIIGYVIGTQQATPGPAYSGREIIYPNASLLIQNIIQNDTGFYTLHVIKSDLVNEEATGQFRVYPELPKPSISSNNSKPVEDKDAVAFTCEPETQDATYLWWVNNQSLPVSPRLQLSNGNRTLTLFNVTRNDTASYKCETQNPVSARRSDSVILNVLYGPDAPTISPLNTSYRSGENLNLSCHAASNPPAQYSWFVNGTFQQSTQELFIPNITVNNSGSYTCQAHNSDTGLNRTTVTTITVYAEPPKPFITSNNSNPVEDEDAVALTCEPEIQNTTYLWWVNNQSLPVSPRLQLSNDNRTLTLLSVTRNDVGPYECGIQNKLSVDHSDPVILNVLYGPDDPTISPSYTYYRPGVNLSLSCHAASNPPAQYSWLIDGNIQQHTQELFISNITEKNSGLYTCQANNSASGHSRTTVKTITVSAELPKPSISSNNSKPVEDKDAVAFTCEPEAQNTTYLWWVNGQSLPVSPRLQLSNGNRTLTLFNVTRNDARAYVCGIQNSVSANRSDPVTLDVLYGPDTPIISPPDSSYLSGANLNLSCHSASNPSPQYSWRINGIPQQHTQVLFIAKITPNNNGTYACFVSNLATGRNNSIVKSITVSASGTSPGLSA
Put plainly: flow cytometry (FACS) on MKN-45 cells, which express CD47, CEACAM5 and CEACAM6; the legend says K2AC39 binds CEACAM5 and CEACAM6, and the curve does not separate the two.

For assay [3], the target named is T2, human CEACAM5 on MKN-45 cells. Put plainly: flow cytometry on MKN45 CEA+ cancer cells (also carry CD47). The protocol: as §1
In assay [4] the target is T3, human CD47 on MKN45 cells (human, UniProt Q08722 19-323).
T3 construct: whole, on cells; also called IAP
Put plainly: inhibition of SIRPα-mouseFc binding to CD47 on MKN45 cells, imaging (CX5); column 'SIRPα inhibition potency'. An excerpt: Experimental set-up for the measurement of the SIRPα inhibition potency data shown for bispecific antibodies of this invention (results see table 2):
The detection of bound SIRPα cell-based assay monitoring the interaction of soluble SIRPα with human CD47 expressed at the surface of MKN45 is used for the detection of the blocking activity. Dose-response experiments with bispecific antibodies according to the invention allow determination of an IC50 value.
MKN45 cancer cells, expressing both CD47 and CEACAM5, are stained with CFSE violet to allow the imaging system (CX5) to detect the cells. Briefly, 3,000 stained MKN45 cells per well are seeded in a 384 optical well plate (Costar) and incubated for 50 minutes with increased concentrations of bispecific antibodies of the invention (1.9 pM to 333 nM, in quadruplicates). Then, a fixe concentration of SIRPα—mouseFc premixed with anti-mouse IgG-Fc AF647 coupled antibody (Jackson Immunoresearch diluted 1:2000) is added at 50 ng/mL final. After an incubation of 3H30 plates are acquired with the imaging system (CX5, Thermofisher) and fluorescence signals emitted by the detected bound SIRPα is recorded by the software dedicated to the imaging system. Fluorescence signals are plotted according to the dose range tested and IC50 are calculated by the software (Prism, Graphpad).

B1: K2AC39 CD47xCEA bispecific antibody (bispecific antibody, human IgG1, kappa, lambda)
heavy: not shown
light 1: not shown
light 2: QSVLTQPPSVSAAPGQKVTISCSGSSSEITASGVSWYQQLPGTAPKLLIYDNNKRPSGIPDRFSGSKSGTSATLGITGLQTGDEADYYCGTWDFPPSRFVFGGGTKLTVLGQPKAAPSVTLFPPSSEELQANKATLVCLISDFYPGAVTVAWKADSSPVKAGVETTTPSKQSNNKYAASSYLSLTPEQWKSHRSYSCQVTHEGSTVEKTVAPTECS
notes: K2 = KA3 CD47 light chain, AC39 = 1B2 CEA light chain
On to B1, for which the binding result in assay [1] is given as “binds”. Also, the EC50 (read off the curve) – broadly, the concentration needed to bring the measured effect to its halfway point – in assay [2] was about 3 µg/mL.

B2: K2AC10 CEAxCD47 bispecific antibody (bispecific antibody, human IgG1, kappa, lambda)
heavy: not shown
light 1: not shown
light 2: QSVLTQPPSVSGAPGQRVTISCTGSSSNIYANSNVHWYQQLPGTAPKLLIYSGSNRPSGVPDRFSGSKSGTSASLAITGLQAEDEADYYCQSYDPAHNLLTAVFGGGTKLTVLGQPKAAPSVTLFPPSSEELQANKATLVCLISDFYPGAVTVAWKADSSPVKAGVETTTPSKQSNNKYAASSYLSLTPEQWKSHRSYSCQVTHEGSTVEKTVAPTECS
notes: kappa-lambda body, human IgG1, common heavy chain; CEA arm light chain 1D5 (AC10)
Take B2: in assay [3], the concentration giving a half-maximal response (EC50) (usually the midpoint of the concentration-response curve) amounted to 1.15 nM. Further, the IC50 (in general, the concentration that gives 50% inhibition) in assay [4] came to 0.22 nM.

B3: K2AC27 CEAxCD47 bispecific antibody (bispecific antibody, human IgG1, kappa, lambda)
heavy: not shown
light 1: not shown
light 2: QSVLTQPPSVSGAPGQRVTISCTGSSSNIGYADKVHWYQQLPGTAPKLLIYNNSDRPSGVPDRFSGSKSGTSASLAITGLQAEDEADYYCQSYDGYNMLTAVFGGGTKLTVLGQPKAAPSVTLFPPSSEELQANKATLVCLISDFYPGAVTVAWKADSSPVKAGVETTTPSKQSNNKYAASSYLSLTPEQWKSHRSYSCQVTHEGSTVEKTVAPTECS
notes: kappa-lambda body, human IgG1, common heavy chain; CEA arm light chain 2C11 (AC27)
In assay [3], B3 registered an EC50 of 12.5 nM. In addition, the IC50 in assay [4] turned out to be 0.86 nM.

B4: K2AC28 CEAxCD47 bispecific antibody (bispecific antibody, human IgG1, kappa, lambda)
heavy: not shown
light 1: not shown
light 2: NFMLTQPHSVSESPGKTVTISCTRSSGSINDITVHWYQQRPGSSPTTVIYGYNARPSGVPDRFSGSIDSSSNSASLTISGLKTEDEADYYCQSWDGHGSAYVFGGGTKLTVLGQPKAAPSVTLFPPSSEELQANKATLVCLISDFYPGAVTVAWKADSSPVKAGVETTTPSKQSNNKYAASSYLSLTPEQWKSHRSYSCQVTHEGSTVEKTVAPTECS
notes: kappa-lambda body, human IgG1, common heavy chain; CEA arm light chain C11 (AC28)
In assay [3], B4 displayed an EC50 of 52.5 nM. This molecule displayed an IC50 in assay [4] of 0.95 nM.

B5: K2AC26 CEAxCD47 bispecific antibody (bispecific antibody, human IgG1, kappa, lambda)
heavy: not shown
light 1: not shown
light 2: QSALTQPASVSGSPGQSITISCTGTSSDVKYANAVSWYQQHPGKAPKLMIYSNSIRPSGVSNRFSGSKSGNTASLTISGLQAEDEADYYCSSYDPRGNLLIRVFGGGTKLTVLGQPKAAPSVTLFPPSSEELQANKATLVCLISDFYPGAVTVAWKADSSPVKAGVETTTPSKQSNNKYAASSYLSLTPEQWKSHRSYSCQVTHEGSTVEKTVAPTECS
notes: kappa-lambda body, human IgG1, common heavy chain; CEA arm light chain 2F7 (AC26)
B5: the EC50 in assay [3] is 12.7 nM. Moreover, the half-inhibitory concentration (IC50) in assay [4] came out at 0.32 nM.

B6: K2AC29 CEAxCD47 bispecific antibody (bispecific antibody, human IgG1, kappa, lambda)
heavy: not shown
light 1: not shown
light 2: QSALTQPASVSGSPGQSITISCTGTSSDVEFTNGVSWYQQHPGKAPKLMIYGFSSRPSGVSNRFSGSKSGNTASLTISGLQAEDEADYYCSSYDPPWHLLARVFGGGTKLTVLGQPKAAPSVTLFPPSSEELQANKATLVCLISDFYPGAVTVAWKADSSPVKAGVETTTPSKQSNNKYAASSYLSLTPEQWKSHRSYSCQVTHEGSTVEKTVAPTECS
notes: kappa-lambda body, human IgG1, common heavy chain; CEA arm light chain 2B5 (AC29)
Molecule B6 returned a concentration for a half-maximal effect (EC50) in assay [3] of 14.5 nM. The molecule further registered an IC50 in assay [4] of 0.72 nM.
